From US20200129532A1 (SALK INSTITUTE FOR BIOLOGICAL STUDIES, published 2020)

Biological target: endogenous ARID2 (293T cells) (UniProt Q68CP9 2-1835, limits assumed)
Experiment: immunoprecipitation of endogenous BAF/PBAF components in 293T cells
Method: For other immunoprecipitations, primary antibodies were incubated with lysates for 2 hr followed by Protein A magnetic beads (Life Technologies, 10001D).

Chain of endogenous ARID2 (293T cells) (Q68CP9 2-1835 limits assumed): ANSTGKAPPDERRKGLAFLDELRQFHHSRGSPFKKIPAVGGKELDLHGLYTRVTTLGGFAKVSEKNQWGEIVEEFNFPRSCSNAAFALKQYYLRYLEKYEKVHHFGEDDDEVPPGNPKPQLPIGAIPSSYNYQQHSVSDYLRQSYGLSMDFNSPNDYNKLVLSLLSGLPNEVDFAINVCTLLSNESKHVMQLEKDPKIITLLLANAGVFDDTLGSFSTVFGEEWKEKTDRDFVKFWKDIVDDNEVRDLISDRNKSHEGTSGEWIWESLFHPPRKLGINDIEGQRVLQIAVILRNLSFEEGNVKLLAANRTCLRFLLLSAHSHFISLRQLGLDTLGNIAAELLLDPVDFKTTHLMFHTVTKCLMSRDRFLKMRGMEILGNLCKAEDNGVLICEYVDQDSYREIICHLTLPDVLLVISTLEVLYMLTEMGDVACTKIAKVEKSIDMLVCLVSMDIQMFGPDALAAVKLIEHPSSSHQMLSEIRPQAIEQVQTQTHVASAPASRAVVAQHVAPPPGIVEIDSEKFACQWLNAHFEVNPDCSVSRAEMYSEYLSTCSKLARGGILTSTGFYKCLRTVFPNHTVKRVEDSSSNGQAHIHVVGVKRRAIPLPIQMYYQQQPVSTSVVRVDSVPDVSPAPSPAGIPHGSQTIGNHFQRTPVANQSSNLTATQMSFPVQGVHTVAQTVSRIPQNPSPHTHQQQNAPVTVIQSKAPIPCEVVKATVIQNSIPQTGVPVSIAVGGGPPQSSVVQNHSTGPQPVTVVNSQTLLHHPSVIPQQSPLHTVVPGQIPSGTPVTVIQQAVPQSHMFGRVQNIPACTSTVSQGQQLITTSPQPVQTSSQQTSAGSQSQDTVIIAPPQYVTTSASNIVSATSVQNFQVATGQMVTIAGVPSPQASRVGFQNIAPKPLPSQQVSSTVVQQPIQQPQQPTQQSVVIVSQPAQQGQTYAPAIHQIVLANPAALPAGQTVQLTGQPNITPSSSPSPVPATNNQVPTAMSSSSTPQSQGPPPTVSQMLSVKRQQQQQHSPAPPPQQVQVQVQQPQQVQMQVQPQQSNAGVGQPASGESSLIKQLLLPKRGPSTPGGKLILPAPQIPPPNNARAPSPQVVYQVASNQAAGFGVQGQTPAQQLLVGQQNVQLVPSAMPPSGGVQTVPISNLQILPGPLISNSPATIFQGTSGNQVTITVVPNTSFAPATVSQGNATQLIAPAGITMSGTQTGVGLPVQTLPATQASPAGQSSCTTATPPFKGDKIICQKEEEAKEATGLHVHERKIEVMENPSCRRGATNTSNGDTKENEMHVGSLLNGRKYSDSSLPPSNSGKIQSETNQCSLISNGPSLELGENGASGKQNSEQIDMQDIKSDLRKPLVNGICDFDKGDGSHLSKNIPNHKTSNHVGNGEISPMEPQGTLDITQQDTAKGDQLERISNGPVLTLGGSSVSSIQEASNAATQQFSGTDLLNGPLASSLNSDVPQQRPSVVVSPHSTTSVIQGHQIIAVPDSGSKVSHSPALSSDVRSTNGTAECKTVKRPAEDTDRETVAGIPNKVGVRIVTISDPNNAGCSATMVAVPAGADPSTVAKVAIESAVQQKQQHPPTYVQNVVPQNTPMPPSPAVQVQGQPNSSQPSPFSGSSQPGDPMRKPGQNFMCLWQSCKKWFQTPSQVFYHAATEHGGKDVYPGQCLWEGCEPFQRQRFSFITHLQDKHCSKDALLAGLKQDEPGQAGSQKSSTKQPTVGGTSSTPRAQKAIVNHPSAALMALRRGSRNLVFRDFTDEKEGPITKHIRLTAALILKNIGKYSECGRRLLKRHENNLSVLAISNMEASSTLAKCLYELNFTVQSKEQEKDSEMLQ

binding result: no binding
B1: endogenous bromodomain-containing protein 9 (BRD9) (other, human, UniProt Q9H8M2 1-597, looked up)
chain: MGKKHKKHKAEWRSSYEDYADKPLEKPLKLVLKVGGSEVTELSGSGHDSSYYDDRSDHERERHKEKKKKKKKKSEKEKHLDDEERRKRKEEKKRKREREHCDTEGEADDFDPGKKVEVEPPPDRPVRACRTQPAENESTPIQQLLEHFLRQLQRKDPHGFFAFPVTDAIAPGYSMIIKHPMDFGTMKDKIVANEYKSVTEFKADFKLMCDNAMTYNRPDTVYYKLAKKILHAGFKMMSKQAALLGNEDTAVEEPVPEVVPVQVETAKKSKKPSREVISCMFEPEGNACSLTDSTAEEHVLALVEHAADEARDRINRFLPGGKMGYLKRNGDGSLLYSVVNTAEPDADEEETHPVDLSSLSSKLLPGFTTLGFKDERRNKVTFLSSATTALSMQNNSVFGDLKSDEMELLYSAYGDETGVQCALSLQEFVKDAGSYSKKVVDDLLDQITGGDHSRTLFQLKQRRNVPMKPPDEAKVGDTLGDSSSSVLEFMSMKSYPDVSVDISMLSSLGKVKKELDPDDSHLNLDETTKLLQDLHEAQAERGGSRPSSNLSSLSNASERDQHHLGSPSRLSVGEQPDVTHDPYEFLQSPEPAASAKT
notes: Endogenous protein in cell lysates; also called bromodomain-containing factor 9
